Experimental findings from US20080248043A1 are described below.

Assay [1] concerns the target antigen of Table 4 (native or denatured; not named). Put plainly: native conditions; 10 µg/ml.
Assay [2] has the same target. Put plainly: denatured conditions; 10 µg/ml.
For assay [3] the target is unchanged. The assay can be described thus: native conditions; dilution 1:5.

Turning to Cont, the results for the OD (read-out not given) in assay [1], in assay [2] and in assay [3] were 0.738, 0.146 and 0.052, respectively.
